The values below come from paper PMC11986105 (2025).

The target of experiment [1] is T1, E. coli K-12 BamA β-barrel (residues 421–810), N-terminally biotinylated (E. coli K-12 (strain MG1655), UniProt P0A940 421-810, biotin on the N-terminal Avitag (BirA ligase)). Briefly: SPR. In general terms: In SPR one partner is held on a chip, and binding of the other changes the refractive index at the surface.
The target in experiment [2] is T1, E. coli K-12 BamA β-barrel (residues …). Briefly: SPR. The source holds these as a separate data set.
The target is the same in experiment [3]. Briefly: SPR; apparent, BamA pre-equilibrated with 2 uM darobactin.

Where “and” joins values, the source holds several entries; their conditions need not be identical. Identical values can stand only once. Ends that are not written are not given here.

Regarding FLWFYHRPVRGFDCG (also: cyclic peptide, closure not given here) [cyclic peptide CP1], the Kd in experiment [1] was 6.6 nM and ~8 nM; in experiment [3], around 5 nM. The koff (commonly the rate constant with which the complex falls apart) in experiment [2] was found to be 0.0023 s⁻¹.
Consider WNWSKSF (also: post-translationally formed bicyclic ring structures) [darobactin], for which the dissociation rate constant (koff) in experiment [2] was 0.012 s⁻¹.
